What was measured:
[1] = system: chondrocyte aggregate cultures; assay: Chondrocyte cytokine induction assay (Proteome Profiler Cytokine Arrays); format: cell-based, human; settings: for Cytokines released by chondrocytes in response: LPS, medium alone
Source text: Chondrocyte aggregate cultures are used which form an extensive extracellular matrix with components characteristic of articular cartilage including aggrecan and type II collagen as described in Welter, J. et al, BioTechniques, 2007, 42(6):732-737; and Solchaga, L. A. et al., Chondrogenic Differentiation of Bone Marrow-Derived Mesenchymal Stem Cells: Tips and Tricks, 2011, 698:253-278.
To form the chondrocyte aggregate cultures, lx10^6 human mesenchymal stem cells (passage one, Lonza, catalog #PT-2501) were plated in a T150 flask (Corning) and cultured in growth media: mesenchymal stem cell basal media (MSCBM, Lonza, #PT-3238), mesenchymal growth supplements (SingleQuots, Lonza, #PT-4105), and 5 ng/ml recombinant human […] (Shenandoah Biotechnology). When confluent, cells were trypsin-released (0.5% trypsin EDTA, Gibco), expanded to two T150 flasks and fed with growth media every three days. When confluent, cells were harvested, resuspended in fresh growth media containing 5% DMSO and aliquots of 1×10^6 cells were cryopreserved in liquid nitrogen.
Human mesenchymal stem cells were used to promote chondrogenesis and chondrocyte aggregate formation for use in these studies. Two vials of passage three cryopreserved cells were thawed, plated in growth media in two T150 flasks and then expanded to six T150 flasks as above. Cells were harvested (0.5% trypsin EDTA, Gibco), pooled, enumerated and induced to chondrogenic differentiation as follows. Cells were resuspended in defined chondrocyte differentiation media: high glucose DMEM (Gibco), 50 μg/ml ascorbic acid-2-phosphate (Sigma), 39.3 ng/ml dexamethasone (Sigma), […] L-proline (Sigma), ITS+Premix (BD Biosciences), 10 ng/ml transforming growth factor β-3 (Shenandoah Biotechnology) and 30 μg/ml gentamicin sulfate+15 ng/ml amphotericin-B (GA-1000, Lonza, #PT-4504E). High density aggregates were obtained by plating, on average, 3×10^5 cells per well in a conical bottom 96 well plate (Thermo Scientific), pelleting by centrifugation (5 minutes at 600 g), and incubation at 37° C. and 5% CO2. Pellets formed coherent spherical aggregates by day two of culture. After seven days, wide bore tips were used to transfer aggregates to V-bottom 96 well plates (Corning). Aggregates were maintained in differentiation media at 37° C. and 5% CO2 for 3-5 weeks and fed every two days until experimentation.
For chondrocyte cytokine induction assays, 24 hours prior to experimentation, dexamethasone containing media was removed, aggregates were rinsed with DPBS (Gibco) and dexamethasone-free differentiation media was added. For experimentation, aggregates were transferred to 24 well plates (24 aggregates per condition), spent media was removed and fresh warmed dexamethasone-free media containing samples was added. Aggregates were then incubated at 37° C. and 5% CO2 for two days.
Recombinant BbHtrA or BbHtrA^S226A was added to culture medium and incubated with chondrocyte aggregate cultures. BbHtrA and BbHtrA^S226A were purified using an E. coli system and was expected to contain endotoxin which would have a stimulatory effect on the chondrocytes. To control for endotoxin contamination (lipopolysaccharide, LPS), an endotoxin removal kit (Noragen) was used to remove the bulk of LPS from recombinant BbHtrAs. The relative toxicity of the amount remaining in the BbHtrA and BbHtrA^S226A samples was determined by a chromogenic Limulus Amoebocyte Lysate (LAL) method (Lonza, Walkersville, Md.). Prior to addition to aggregates, LPS (44 ng, 200 EU), BbHtrA^WT (20 μg, 27.9 EU LPS) and BbHtrA^S226A ([…], 1.99 EU LPS) were incubated in 1 mg/ml polymyxin B sulfate (Sigma) on ice for 30 min with occasional mixing. Warmed dexamethasone-free medium was then added to each test condition to a final volume of 1 ml. Control aggregates were maintained in untreated medium also containing polymyxin B sulfate. The final concentration for all test conditions was 60 μg/ml polymyxin B sulfate. […]

Versican = Versican (Homo sapiens, UniProt P13611); assay: BbHtrA proteolysis assay, versican substrate; format: biochemical; settings: SDS-PAGE, FIG. 5
Protocol: For proteolysis assays described in Examples herein, purified protein substrates (200-600 nM) and proteases (100-150 nM) were diluted in assay buffer (50 mM HEPES, pH 7.4, 5 mM CaCl2) and incubated overnight at 37° C. Samples were boiled for 4 minutes to inactivate the proteases. Proteoglycans were deglycosylated by overnight incubation at 37° C. with 0.01 U chondroitinase ABC (Seikagaku). Reactions were stopped by the addition of SDS/PAGE sample buffer, boiled for 4 minutes, and electrophoresed on pre-cast Tris-glycine gels (BioRad). Reaction products were visualized by silver staining.
Purified proteins were incubated with BbHtrA or BbHtrA^S226A as described herein. HtrA (also known as DegP) proteases belong to the family of serine proteases which contain a highly reactive serine residue in their active site. This serine (Ser210 in DegP) is part of the canonical His-Ser-Asp catalytic triad and mutation of the catalytic serine abolishes proteolytic activity (Skorko-Glonek et al., 1995). In BbHtrA, residues His119, Ser226 and Asp149 form the catalytic triad and mutation of serine 226 to alanine abolished proteolytic activity as expected (FIG. 5).
Reaction products were separated by SDS-PAGE and silver stained. Native collagen II and recombinant tenascin C were not degraded by BbHtrA indicating selectivity for proteoglycans, E-cadherin and fibronectin. […]

[2] = spent medium of chondrocyte aggregates after 48 hours, cytokine array, background subtracted

Versican, sequence (P13611 21-3396): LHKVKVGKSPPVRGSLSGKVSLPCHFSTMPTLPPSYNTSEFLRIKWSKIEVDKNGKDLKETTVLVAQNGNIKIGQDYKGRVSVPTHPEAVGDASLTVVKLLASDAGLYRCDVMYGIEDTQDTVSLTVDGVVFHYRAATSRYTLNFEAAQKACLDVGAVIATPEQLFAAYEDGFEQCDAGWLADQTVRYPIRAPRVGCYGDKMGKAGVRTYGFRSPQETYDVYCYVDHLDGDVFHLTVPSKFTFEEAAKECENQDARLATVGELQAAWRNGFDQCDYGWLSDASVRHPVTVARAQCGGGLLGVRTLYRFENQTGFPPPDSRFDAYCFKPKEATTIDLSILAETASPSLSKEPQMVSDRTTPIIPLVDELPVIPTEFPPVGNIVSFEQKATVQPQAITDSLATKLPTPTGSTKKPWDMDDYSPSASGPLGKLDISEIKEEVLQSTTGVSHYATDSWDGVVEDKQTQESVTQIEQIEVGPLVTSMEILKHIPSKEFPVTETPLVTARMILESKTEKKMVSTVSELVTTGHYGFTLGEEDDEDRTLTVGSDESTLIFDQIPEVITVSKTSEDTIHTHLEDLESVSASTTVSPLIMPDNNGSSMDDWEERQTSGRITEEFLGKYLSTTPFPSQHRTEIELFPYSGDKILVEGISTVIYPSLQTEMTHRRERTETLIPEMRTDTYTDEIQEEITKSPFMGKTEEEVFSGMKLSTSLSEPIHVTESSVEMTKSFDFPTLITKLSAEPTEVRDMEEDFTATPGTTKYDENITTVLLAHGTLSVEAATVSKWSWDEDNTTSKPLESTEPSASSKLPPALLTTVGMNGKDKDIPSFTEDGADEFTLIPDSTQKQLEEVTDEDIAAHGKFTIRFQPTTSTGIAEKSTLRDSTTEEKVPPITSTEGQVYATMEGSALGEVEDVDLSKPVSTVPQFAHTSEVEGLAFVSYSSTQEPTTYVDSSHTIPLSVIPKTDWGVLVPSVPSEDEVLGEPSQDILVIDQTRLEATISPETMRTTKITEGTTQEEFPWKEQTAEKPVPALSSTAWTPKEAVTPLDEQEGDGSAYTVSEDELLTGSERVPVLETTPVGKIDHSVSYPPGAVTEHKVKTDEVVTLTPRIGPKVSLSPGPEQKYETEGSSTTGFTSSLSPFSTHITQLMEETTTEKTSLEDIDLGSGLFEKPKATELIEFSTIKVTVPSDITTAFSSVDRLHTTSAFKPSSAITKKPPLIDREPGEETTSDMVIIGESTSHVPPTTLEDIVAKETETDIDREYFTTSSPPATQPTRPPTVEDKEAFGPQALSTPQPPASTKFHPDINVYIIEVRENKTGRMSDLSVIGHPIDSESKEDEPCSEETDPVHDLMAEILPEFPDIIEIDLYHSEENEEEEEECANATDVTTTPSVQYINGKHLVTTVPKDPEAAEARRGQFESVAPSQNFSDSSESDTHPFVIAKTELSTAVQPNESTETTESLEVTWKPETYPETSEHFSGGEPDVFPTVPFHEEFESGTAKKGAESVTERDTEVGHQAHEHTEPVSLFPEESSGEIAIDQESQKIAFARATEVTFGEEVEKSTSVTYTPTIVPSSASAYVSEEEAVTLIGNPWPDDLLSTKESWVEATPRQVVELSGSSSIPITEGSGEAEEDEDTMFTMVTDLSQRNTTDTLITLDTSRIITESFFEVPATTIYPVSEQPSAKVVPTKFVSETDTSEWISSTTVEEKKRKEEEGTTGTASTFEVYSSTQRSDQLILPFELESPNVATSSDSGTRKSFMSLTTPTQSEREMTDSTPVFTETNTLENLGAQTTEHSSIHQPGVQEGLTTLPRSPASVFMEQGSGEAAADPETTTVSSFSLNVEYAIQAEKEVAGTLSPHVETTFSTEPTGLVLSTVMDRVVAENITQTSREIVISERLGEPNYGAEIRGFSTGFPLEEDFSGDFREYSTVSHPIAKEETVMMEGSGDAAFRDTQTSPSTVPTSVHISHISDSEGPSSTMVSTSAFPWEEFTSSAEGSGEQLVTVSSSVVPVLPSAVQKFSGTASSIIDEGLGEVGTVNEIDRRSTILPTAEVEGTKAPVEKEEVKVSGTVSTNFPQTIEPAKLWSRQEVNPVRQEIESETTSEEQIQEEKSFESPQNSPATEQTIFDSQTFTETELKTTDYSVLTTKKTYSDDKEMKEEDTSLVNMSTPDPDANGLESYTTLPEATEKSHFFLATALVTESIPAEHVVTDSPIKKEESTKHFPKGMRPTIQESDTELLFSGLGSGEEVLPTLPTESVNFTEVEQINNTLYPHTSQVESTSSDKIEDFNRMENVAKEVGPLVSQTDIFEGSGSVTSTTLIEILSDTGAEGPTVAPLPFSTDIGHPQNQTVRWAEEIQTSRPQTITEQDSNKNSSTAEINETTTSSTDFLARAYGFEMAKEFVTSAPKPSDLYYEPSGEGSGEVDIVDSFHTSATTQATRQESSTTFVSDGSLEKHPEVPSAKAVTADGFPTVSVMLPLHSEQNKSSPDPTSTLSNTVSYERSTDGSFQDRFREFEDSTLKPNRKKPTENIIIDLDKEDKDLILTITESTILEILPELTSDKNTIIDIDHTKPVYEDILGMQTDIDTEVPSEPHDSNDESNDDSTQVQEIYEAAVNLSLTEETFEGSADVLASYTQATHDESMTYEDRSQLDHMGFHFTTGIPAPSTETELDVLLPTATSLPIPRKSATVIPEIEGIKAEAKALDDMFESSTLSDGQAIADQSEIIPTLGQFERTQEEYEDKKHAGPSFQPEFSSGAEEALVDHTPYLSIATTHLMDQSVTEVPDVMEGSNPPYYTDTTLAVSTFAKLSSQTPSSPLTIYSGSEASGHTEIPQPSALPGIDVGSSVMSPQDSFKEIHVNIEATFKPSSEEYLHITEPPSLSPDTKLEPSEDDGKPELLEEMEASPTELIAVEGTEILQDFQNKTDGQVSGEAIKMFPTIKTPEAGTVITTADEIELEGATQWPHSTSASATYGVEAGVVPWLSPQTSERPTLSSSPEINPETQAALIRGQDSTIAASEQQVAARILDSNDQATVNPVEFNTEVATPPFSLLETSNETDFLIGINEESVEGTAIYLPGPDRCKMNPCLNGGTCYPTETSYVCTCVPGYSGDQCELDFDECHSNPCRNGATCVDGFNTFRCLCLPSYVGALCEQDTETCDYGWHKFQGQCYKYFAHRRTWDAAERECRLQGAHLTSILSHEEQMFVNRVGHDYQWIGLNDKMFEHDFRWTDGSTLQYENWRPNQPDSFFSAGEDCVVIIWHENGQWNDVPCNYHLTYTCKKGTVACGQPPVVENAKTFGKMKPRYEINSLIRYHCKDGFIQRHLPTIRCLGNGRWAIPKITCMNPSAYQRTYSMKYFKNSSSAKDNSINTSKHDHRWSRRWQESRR

B1: BbHtrA: Recombinant wild type B. burgdorferi HtrA serine protease, mature protein amino acids 38-474, expressed in E. coli (SEQ ID NO:1, 9) (protein, listed as Borrelia burgdorferi)
chain: EEKDNTVRALQDSFREVSKKILPSSVEVHATGVIKQSFPIPFFFFDMPEFDSERKSNWAGSGVIIGRDSQKKSLFYVVTNSHVVDKATELEVVSYDKKKHKAKLIGKDEKKDIALISFESDDATIKVADLGDSDKLEIGDWVMAVGSPFQFSFTVTAGIVSGLQRSANPNLQSRNLFIQTDAAINRGNSGGPLVNIKGEVIGINAWIASNSGGNIGLGFAIPVNNIKSTVDFFLKGKKIESAWLGISFYPLKTRDSEVLKSLGVESNDVSAAIIASLYPGSPAVKSGLRAGDIIMKVNGVSMSVFQDVTSYISDFYAGEKVNVEILRGNVKKNIEIVLAVRPKDKELSSSKMLPGFVVYPLVEDIKAQLNLRNWIKGVVVDYIDKNLASNIKMKSGDVILSVNSKSVSNLREFYDALEVGKNTYKILRGNDSFKITF
[1]; additional experiments, FIG. 10: BbHtrA^WT, BbHtrA^S226A
  Cytokines released by chondrocytes in response: CCL5, CCL2, CXCL1, CCL1, sICAM-1, IL-6 and IL-8
[1]; initial experiments, FIG. 9A: BbHtrA, heat denatured BbHtrA
  Cytokines released by chondrocytes in response: CXCL1, CCL1, sICAM-1, IL-6, IL-8 and CCL2
[1]; [2]
  GROα/CXCL1 pixel density, Mean: 1.349
  I-309/CCL1 pixel density, Mean: 0.535
  IL-6 pixel density, Mean: 0.627
  IL-8 pixel density, Mean: 1.581
  MCP-1/CCL2 pixel density, Mean: 0.452
  RANTES/CCL5 pixel density, Mean: 0.736
  sICAM-1/CD54 pixel density, Mean: 0.890
Versican
  Degradation of versican: degrades

Reference: patent publication US9383360B2, “Compositions and methods relating to lyme disease” (The United States of America, as represented by the …, priority 2012, dated 2016)
